Test results taken from US20200157147A1 (SEOUL NATIONAL UNIVERSITY HOSPITAL, published 2020).

Target: T1, hResistin (human, UniProt Q9HD89 19-108)
T1 construct: Immobilised on the SPR chip; also called human resistin; resistin protein
T1 sequence (looked up): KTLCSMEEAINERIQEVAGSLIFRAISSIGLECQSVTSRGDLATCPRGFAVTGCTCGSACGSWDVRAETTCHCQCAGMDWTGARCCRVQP
Assay: SPR (Reichert SR7500DC), hResistin immobilised on CMDH chip, peptide injected in PBS
Method: To measure the direct binding of hResistin and VS_peptide (SEQ ID NO: 2), SPR analysis was performed using Reichert SR7500DC system. hResistin (1.8 ug) and hPCSK9 (1.6 ug) proteins were immobilized on the carboxymethyl dextran hydrogel surface sensor chip (CMDH chip, Cat#: 13206066) by using a 10 mM sodium acetate immobilization buffer (pH 5.5 or pH 4.5). VS_peptide (SEQ ID NO: 2) diluted in PBS buffer (pH 7.4) in a dose-dependent manner was injected into the sensor chip (flow rate: 30 μl/min, association time: 3 min) to measure the response unit (RU) for binding strength. After the measurement of RU values for binding strength, PBS buffer (pH 7.4) was allowed to flow over the sensor chip at a rate of 30 μl/min for 3 minutes to measure dissociation RU values of VS_peptide (SEQ ID NO: 2) from hResistin immobilized on the chip. The dissociation equilibrium constant (KD) of VS_peptide (SEQ ID NO: 2) for hResistin was derived using Scrubber2 software (KD=Kd/Kₐ, Kₐ=association rate, Kd=dissociation rate).

Kd: 3.7 mM
B1: VS_peptide (SEQ ID NO: 2) (peptide)
peptide: PPPPGPPPPPVSTSSGSDES
notes: Synthesised by Peptron, Korea; also called peptide VS; Existing peptide
